The results in this text go back to US20220177575A1 (MAGENTA THERAPEUTICS, published 2022).

This test deals with T1, Human CD117 antigen (human, UniProt P10721 26-520).
T1 construct: also called c-kit; Stem Cell Factor Receptor
The test is described as follows: chemical cross-linking, High-Mass MALDI MS and nLC-Orbitrap MS of the complex.

T1 sequence (P10721 other isoform, or with tags, fused parts or gaps limits assumed): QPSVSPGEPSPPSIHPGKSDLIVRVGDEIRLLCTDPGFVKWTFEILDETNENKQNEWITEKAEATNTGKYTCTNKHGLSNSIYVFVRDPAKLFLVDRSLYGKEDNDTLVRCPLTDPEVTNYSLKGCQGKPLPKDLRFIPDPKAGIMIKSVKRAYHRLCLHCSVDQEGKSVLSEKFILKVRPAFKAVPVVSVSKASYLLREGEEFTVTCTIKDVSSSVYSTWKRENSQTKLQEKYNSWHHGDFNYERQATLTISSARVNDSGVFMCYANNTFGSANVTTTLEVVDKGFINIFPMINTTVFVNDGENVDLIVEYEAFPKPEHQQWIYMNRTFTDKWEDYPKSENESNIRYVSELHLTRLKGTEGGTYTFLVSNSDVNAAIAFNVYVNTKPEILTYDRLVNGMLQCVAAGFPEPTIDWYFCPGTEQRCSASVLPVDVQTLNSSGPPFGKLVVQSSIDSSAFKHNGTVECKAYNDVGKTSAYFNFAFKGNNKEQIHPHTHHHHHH

B1: anti-CD117 antibody 85 (Ab85) (antibody, V domains shown)
VH: EVQLVQSGAEVKKPGESLKISCKGSGYSFTNYWIGWVRQMPGKGLEWMAIINPRDSDTRYRPSFQGQVTISADKSISTAYLQWSSLKASDTAMYYCARHGRGYEGYEGAFDIWGQGTLVTVSS
VL: DIQMTQSPSSLSASVGDRVTITCRSSQGIRSDLGWYQQKPGKAPKLLIYDASNLETGVPSRFSGSGSGTDFTLTISSLQPEDFATYYCQQANGFPLTFGGGTKVEIK
notes: Human antibody derived from CK6; also called Antibody HC-85/LC-85
Turning to B1, the binding result was “binds”.
